{
  "source": "patent US20180038858A1",
  "about": "(published 2018)",
  "key": {"[1]": {"biological_target": "T1, CCR1 on peripheral blood monocytes (human, UniProt P32246 1-355)", "T1 construct": "whole, on cells; also called chemokine (C-C motif) receptor 1", "T1 sequence (looked up)": "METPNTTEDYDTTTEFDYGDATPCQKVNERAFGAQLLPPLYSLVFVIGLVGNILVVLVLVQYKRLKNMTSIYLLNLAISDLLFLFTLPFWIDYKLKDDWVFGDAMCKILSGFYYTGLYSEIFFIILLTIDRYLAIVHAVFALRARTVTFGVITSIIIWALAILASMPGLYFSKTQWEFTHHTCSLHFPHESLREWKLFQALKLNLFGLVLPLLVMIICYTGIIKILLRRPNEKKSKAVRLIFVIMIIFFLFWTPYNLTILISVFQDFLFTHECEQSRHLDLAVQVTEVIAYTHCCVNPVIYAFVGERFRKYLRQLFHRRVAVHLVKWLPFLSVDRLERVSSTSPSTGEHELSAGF", "assay": "flow cytometry, biotinylated chemokine (1 µM) detected with fluorophore-streptavidin, on blood monocytes of a sarcoidosis patient", "method": "Peripheral blood from patients and healthy controls was collected in heparin tubes. The red blood cells were lysed using Fix Buffer (Phosphate Buffer Saline (PBS) citrate with 4% paraformaldehyde) for four minutes at 37° C. and Lysing buffer (PBS with 10 mM Tris and 160 mM NH4Cl, pH 7.5) for 15 min at 37° C. The cells were washed in PBS with 2% Bovine Growth Serum, incubated with 10% human serum 15 min at room temperature (RT) and stained with cell specific antibodies together with biotinylated chemokine (1 μM) or the corresponding chemokine receptor antibody at 4° C. for 30 min (Table 1). The biotinylated chemokine was detected via the interaction between biotin and a fluorophore conjugated Streptavidin. The samples were analysed by flow cytometry on a FACS Canto flow cytometer with the FACSDiva software (BD Biosciences)."}, "hCCR5": {"biological_target": "hCCR5 (human, UniProt P51681 1-352)", "sequence (P51681 whole entry)": "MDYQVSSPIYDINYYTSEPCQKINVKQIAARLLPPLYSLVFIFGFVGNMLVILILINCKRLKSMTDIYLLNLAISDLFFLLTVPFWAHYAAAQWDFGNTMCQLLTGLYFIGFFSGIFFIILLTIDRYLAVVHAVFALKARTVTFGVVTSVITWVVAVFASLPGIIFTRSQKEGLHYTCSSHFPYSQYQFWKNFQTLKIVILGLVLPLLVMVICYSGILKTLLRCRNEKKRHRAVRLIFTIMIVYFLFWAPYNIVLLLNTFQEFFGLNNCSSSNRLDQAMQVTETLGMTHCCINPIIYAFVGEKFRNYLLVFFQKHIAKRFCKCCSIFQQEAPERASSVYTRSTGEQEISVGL", "assay": "cell-based or functional assay"}},
  "note": "Bridge positions count the residues as written; N and C are the ends. * marks the point of attachment. Biotin = O=C1N[C@H]2[C@H](CS[C@H]2CCCCC(=O)*)N1",
  "data": [
    {"binder": "biotinRANTES (CCL5), RANTES derivatised at Lys(67) with Biotin (ligand, disulfide 10-34, 11-50, Residues 1-68 of mature human RANTES; also called biotinylated RANTES; bRANTES) H-SPYSSDTTPCCFAYIARPLPRAHIKEYFYTSGKCSNPAVVFVTRKNRQVCANPEKKWVREYINSLEK(Biotin)S-OH", "values": [
      {"measurement": "binding result", "setting": "[1]", "value": "binds"},
      {"measurement": "EC50, agonist activity in an Aequorin assay", "setting": "hCCR5", "value": 0.5, "unit": "nM"}
    ]}
  ]
}
